Key:
[1] = target: CD40/Fc fusion protein (human) (UniProt P25942); experiment: BIAcore biosensor; CD40/Fc captured on the chip; first experiment; K1 (site 1)
[2] = target: CD40/Fc fusion protein (human) (UniProt P25942); experiment: BIAcore biosensor; CD40/Fc captured on the chip; first experiment
[3] = target: CD40/Fc fusion protein (human) (UniProt P25942); experiment: BIAcore biosensor; CD40/Fc captured on the chip; first experiment; K2 (site 2)
[4] = target: CD40/Fc fusion protein (human) (UniProt P25942); experiment: BIAcore biosensor; CD40/Fc captured by goat anti-human IgG1 Fc on the chip, CD40-L construct at increasing concentrations; first experiment
[5] = target: CD40/Fc fusion protein (human) (UniProt P25942); experiment: BIAcore biosensor; CD40/Fc captured on the chip; second experiment; K2 (site 2)
[6] = target: CD40/Fc fusion protein (human) (UniProt P25942); experiment: BIAcore biosensor; CD40/Fc captured on the chip; second experiment; K1 (site 1)
[7] = target: CD40/Fc fusion protein (human) (UniProt P25942); experiment: BIAcore biosensor; CD40/Fc captured on the chip; second experiment
[8] = target: CD40 on cells that express CD40 (UniProt P25942); experiment: cell-based or functional assay
[9] = target: CD40/Fc fusion protein (human) (UniProt P25942); experiment: BIAcore biosensor; CD40/Fc captured on the chip; second experiment; K2 (site 2); site 1 not detected

Chain of CD40/Fc fusion protein (human) (P25942 21-193): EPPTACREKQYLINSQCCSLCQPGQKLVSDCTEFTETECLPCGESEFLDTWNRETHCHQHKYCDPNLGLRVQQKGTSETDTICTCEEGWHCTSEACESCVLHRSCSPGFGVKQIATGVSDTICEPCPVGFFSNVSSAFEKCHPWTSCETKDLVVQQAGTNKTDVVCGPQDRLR
Chain of trimeric human CD40-L (oligomerizing zipper fusion, Example 15) (P29965 51-261 limits assumed): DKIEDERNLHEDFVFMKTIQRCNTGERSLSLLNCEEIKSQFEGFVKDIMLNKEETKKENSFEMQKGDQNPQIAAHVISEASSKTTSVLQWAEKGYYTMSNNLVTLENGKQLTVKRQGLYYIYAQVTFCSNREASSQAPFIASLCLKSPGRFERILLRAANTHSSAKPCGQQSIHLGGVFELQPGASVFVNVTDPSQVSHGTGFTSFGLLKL
Chain of CD40 on cells that express CD40 (P25942 21-277 limits assumed): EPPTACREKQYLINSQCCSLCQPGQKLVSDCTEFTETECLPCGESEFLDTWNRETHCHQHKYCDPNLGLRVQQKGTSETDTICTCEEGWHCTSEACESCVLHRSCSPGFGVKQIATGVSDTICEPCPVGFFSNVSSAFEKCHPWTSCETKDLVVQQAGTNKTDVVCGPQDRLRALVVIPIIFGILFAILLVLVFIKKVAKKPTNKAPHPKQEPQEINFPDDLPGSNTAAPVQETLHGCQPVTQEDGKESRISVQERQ

Row | Ka [1] | Site2 (mol/mol CD40/Fc) (mol/mol CD40/Fc) [2] | Ka [3] | Site2 (mol/mol CD40/Fc) (mol/mol CD40/Fc) [7] | Substance | Ka [9] | also measured
1 | 6e+10 M⁻¹ | 0.44 | 1.6e+08 M⁻¹ | – | trimeric murine CD40-L (oligomerizing zipper fusion) (ligand) | – | Site1 (mol/mol CD40/Fc) (mol/mol CD40/Fc) [2]: 0.02
2 | 5e+09 M⁻¹ | 0.68 | 7.5e+07 M⁻¹ | 0.41 | trimeric human CD40-L (oligomerizing zipper fusion, Example 15) (from UniProt P29965 51-261) (ligand) | – | Site1 (mol/mol CD40/Fc) (mol/mol CD40/Fc) [4]: 0.04; Ka [5]: 2.6e+07 M⁻¹; Ka [6]: 6.6e+08 M⁻¹; Site1 (mol/mol CD40/Fc) (mol/mol CD40/Fc) [7]: 0.26
3 | – | – | – | – | wild type CD40 ligand/zipper domain fusion protein (WT) expressed in yeast | – | B-cell proliferation (U/µg), Experiment 1; WT [8]: 77 U/µg; B-cell proliferation (U/µg), Experiment 2; WT [8]: 15 U/µg
4 | – | – | – | 1.27 | monomeric human CD40-L, preparation #2 (ligand) | 1.1e+07 M⁻¹ | –

Row | Substance | Ka [1] | Site2 (mol/mol CD40/Fc) (mol/mol CD40/Fc) [2] | Ka [3] | Site2 (mol/mol CD40/Fc) (mol/mol CD40/Fc) [7] | Ka [9] | also measured
5 | monomeric human CD40-L, preparation #1 (ligand) | – | – | – | 1.2 | 4.6e+07 M⁻¹ | –
